Experimental data from paper PMC3951674.
Read-outs that look alike come from different tables or passages of the source.

Tests used:
[1] = target: L43A ubiquitin (UniProt P0CG48); assay: NMR titration
[2] = target: L43A ubiquitin (UniProt P0CG48); assay: 15N T1 relaxation
[3] = target: L43A ubiquitin (UniProt P0CG48); assay: NMR titration; remark: listed apart in the source

| stoichiometry N [1] | stoichiometry N [2] | Kd [1] [µM] | Kd [3] [µM] | Substance |
| --- | --- | --- | --- | --- |
| 1 | – | – | – | UBA2 domain of hHR23a (from UniProt P54725 1-363) (domain or fragment) |
| – | 1 | 26 | 28 | ubiquilin-1 UBA domain (UQ1-UBA) construct (from UniProt Q9UMX0 541-586) (domain or fragment) |
